Consider eleven molecules from patent US20110028695A1 (published 2011).

In general, koff refers to the first-order rate constant of dissociation.

The target of experiment [1] is T1, HER2 on SKBR3 cells (human, UniProt P04626 23-1255).
T1 construct: whole, on cells; also called ErbB2; HER2 p185 tyrosine kinase
As to the kind of experiment: FMAT on SKBR3 cells; competitor labeled Herceptin.

Experiment [2] deals with T1, HER2 on SKBR3 cells. As to the kind of experiment: FMAT on SKBR3 cells, periplasmic extract; competitor biotinylated OT-Fab.
Experiment [3] has as its target T1, HER2 on SKBR3 cells. Kind of experiment: cell-based or functional assay.
Experiment [4] concerns the target T1, HER2 on SKBR3 cells. As to the kind of experiment: FMAT on SKBR3 cells, periplasmic extract; competitor Alexa647-Herceptin.
Experiment [5] addresses T2, recombinant human ErbB2/Fc chimera (human, UniProt P04626 23-652).
T2 construct: bought from R&D Systems; also called rhErbB2-Fc; rhErb2-Fc; Fc part of the bought chimera not given
Kind of experiment: SPR Biacore 3000, periplasmic extract over immobilised rhErbB2-Fc. On the technique in general: SPR reads the build-up and loss of mass on a sensor chip optically.

B1: 27A5-35GS-2D3 (bispecific antibody)
chain: EVQLVESGGGLVQAGGSLNLSCVASGIPFSTRTMAWYRQPPGNERDWVATIRSGAPVYADSVKGRFTVSRDNAKNTLYLQMNSLEPEDTATYYCWDVNGDIWGQGTPVTVSSGGGGSGGGGSGGGGSGGGGSGGGGSGGGGSGGGGSEVQLVESGGSLVQPGGSLRLSCAASGFTFDDYAMSWVRQVPGKGLEWVSSINWSGTHTDYADSVKGRFTISRNNANNTLYLQMNSLKSEDTAVYYCAKNWRDAGTTWFEKSGSAGQGTQVTVSS
notes: biparatopic Nanobody, 35GS linker; c-myc, His6-tagged
With B1, in the experiment with HER2 on SKBR3 cells [1], the binding result is on record as “binds”.

B2: 2A5-9GS-2A5 (VHH)
chain: EVQLVESGGGLVQPGGSLRLSCATSGFTFDDYAMTWVRQAPGKGLEWVSSINWSGTHTDYTDSVKGRFTISRNNANNTLYLQMNSLKSEDTAVYYCAKNWGDAGTTWFEKSGSAGQGTQVTVSSGGGGSGGGSEVQLVESGGGLVQPGGSLRLSCATSGFTFDDYAMTWVRQAPGKGLEWVSSINWSGTHTDYTDSVKGRFTISRNNANNTLYLQMNSLKSEDTAVYYCAKNWGDAGTTWFEKSGSAGQGTQVTVSS
notes: bivalent Nanobody, two VHH joined by a 9GS linker
As to B2, the binding result with HER2 on SKBR3 cells [1] is reported as “binds”.

B3: 2D3-9GS-2D3 (VHH)
chain: EVQLVESGGSLVQPGGSLRLSCAASGFTFDDYAMSWVRQVPGKGLEWVSSINWSGTHTDYADSVKGRFTISRNNANNTLYLQMNSLKSEDTAVYYCAKNWRDAGTTWFEKSGSAGQGTQVTVSSGGGGSGGGSEVQLVESGGSLVQPGGSLRLSCAASGFTFDDYAMSWVRQVPGKGLEWVSSINWSGTHTDYADSVKGRFTISRNNANNTLYLQMNSLKSEDTAVYYCAKNWRDAGTTWFEKSGSAGQGTQVTVSS
notes: as for B2
B3: the binding result with HER2 on SKBR3 cells [1] was “binds”.

B4: 47D5 (VHH)
VHH: KVQLVESGGGLVQPGGSLRLSCAASGSIFGFNDMAWYRQAPGKQRELVALISRVGVTSSADSVKGRFTISRVNAKDTVYLQMNSLKPEDTAVYYCYMDQRLDGSTLAYWGQGTQVTVSS
notes: c-myc/His6-tagged; also called 47A8
Take B4: the “% blocking of OT-Fab binding” value in the experiment with HER2 on SKBR3 cells [2] was above 85%.

B5: 2D3 (VHH)
VHH: EVQLVESGGSLVQPGGSLRLSCAASGFTFDDYAMSWVRQVPGKGLEWVSSINWSGTHTDYADSVKGRFTISRNNANNTLYLQMNSLKSEDTAVYYCAKNWRDAGTTWFEKSGSAGQGTQVTVSS
Consider B5, for which the “inhibition of SKBR3 proliferation ([3H]-thymidine), 50 nM Nanobody” value with HER2 on SKBR3 cells [3] is around 30%.

B6: 13C12 (VHH)
VHH: EVQLVESGGSLVQPGGSLRLSCATSGFTFDDYAMTWVRQAPGKGLEWVSSINWSGTHTDYTDSVKGRFTISRNNANNTLYLQMNSLKSEDTAVYYCAKNWGDAGTTWFEKSGSAGQGTQVTVSS
notes: c-myc/His6-tagged
With B6, the “% blocking of Herceptin binding” value with HER2 on SKBR3 cells [4] was above 90%.

B7: 2H3 (VHH)
VHH: EVQLVESGGGLVQPGGSLRLSCVASGFSLDDYGMTWVRQAPGKGLEWVSSINWSGTHTDYADSVKGRFTISRDNAKNTLFLQMNSLTPEDTAVYYCNQGWKIIPTDRRGHGTQVTVSS
notes: c-myc/His6-tagged
In the case of B7, in experiment [5], the koff came to 0.00109 s⁻¹.

B8: 2A4-9GS-2A4 (VHH)
chain: EVQLVESGGGLVQPGGSLRLSCAASGFIFDDYAMSWVRQAPGKGLEWVSAINWSGSHRNYADSVKGRFTISRDNAKKTVYLQMNSLQSEDTAVYYCGTGWQSTTKNQGYWGQGTQVTVSSGGGGSGGGSEVQLVESGGGLVQPGGSLRLSCAASGFIFDDYAMSWVRQAPGKGLEWVSAINWSGSHRNYADSVKGRFTISRDNAKKTVYLQMNSLQSEDTAVYYCGTGWQSTTKNQGYWGQGTQVTVSS
notes: as for B2
B8: the binding result in the experiment with HER2 on SKBR3 cells [1] is “binds”.

B9: 27H3-35GS-2D3 (other)
chain: EVQLVESGGSLVQPGGSLRLSCAASGFTFDDYAMTWVRQASGKGLEWVSSINWSGTHTDYTDSVKGRFTISRNNANNTLYLQMNSLKSEDTAVYYCAKNWGDAGTTWFEKSGSAGQGTQVTVSSGGGGSGGGGSGGGGSGGGGSGGGGSGGGGSGGGGSEVQLVESGGSLVQPGGSLRLSCAASGFTFDDYAMSWVRQVPGKGLEWVSSINWSGTHTDYADSVKGRFTISRNNANNTLYLQMNSLKSEDTAVYYCAKNWRDAGTTWFEKSGSAGQGTQVTVSS
notes: as for B1
On to B9, for which the binding result in the experiment with HER2 on SKBR3 cells [1] is on record as “binds”.

B10: 30D10-35GS-2D3 (bispecific antibody)
chain: EVQLVESGGGLVQAGGSLTLSCTASETTVRIRTMAWYRQPPGNQREWVATIGSNGFATYPDSVKGRFTISRDNAKNTVYLQMNSLKPEDTAVYYCRDINRDIWGQGSQVTVSSGGGGSGGGGSGGGGSGGGGSGGGGSGGGGSGGGGSEVQLVESGGSLVQPGGSLRLSCAASGFTFDDYAMSWVRQVPGKGLEWVSSINWSGTHTDYADSVKGRFTISRNNANNTLYLQMNSLKSEDTAVYYCAKNWRDAGTTWFEKSGSAGQGTQVTVSS
notes: as for B1
B10: the binding result with HER2 on SKBR3 cells [1] is listed as “binds”.

B11: 2C3-9GS-2C3 (VHH)
chain: EVQLVESGGGLVQPGGSLRLSCVASGFSLDDYGMTWVRQAPGKGLEWVSSINWSGTHTDYADSVKGRFTISRDNAKNTLFLQMNSLRSEDTAVYYCNQGWKIVPTDRTGHGTQVTVSSGGGGSGGGSEVQLVESGGGLVQPGGSLRLSCVASGFSLDDYGMTWVRQAPGKGLEWVSSINWSGTHTDYADSVKGRFTISRDNAKNTLFLQMNSLRSEDTAVYYCNQGWKIVPTDRTGHGTQVTVSS
notes: as for B2
Turning to B11, the binding result with HER2 on SKBR3 cells [1] is listed as “binds”.
